For assay [1], the target named is recombinant fragment of human SP-A (rfhSP-A) (human). In words: SEC; gel permeation chromatography, Superdex 200 HR 10/30, TBS with 5 mM EDTA, pH 7.4; rfhSP-A after IMAC and removal of the NT tag; quaternary structure estimated by comparison with molecular weight standards.
Assay [2] has the same target. In words: SEC; gel permeation chromatography, Superdex 200 HR 10/30, TBS with 5 mM EDTA, pH 7.4; rfhSP-A purified by mannan affinity chromatography; also after freeze/thawing. In general terms: SEC sorts molecules by how far they enter the pores of the column.

As usually defined, the stoichiometry N is the number of molecules, sites or subunits per partner or assembly.

As for “recombinant fragment of human SP-A (rfhSP-A) (domain or fragment)”, in assay [1], the percent dimeric was 15%, the percent monomeric is 9%, the percent trimeric is 72% and the stoichiometry N is 3. Further, the stoichiometry N in assay [2] is 3.
